Here are results for six substances from article PMC4381924.

In assay [1] the target is IGF1R ECD-TM-fp (human). Nature of the assay: FRET or BRET; spectrally resolved two-photon FRET on living, serum-starved CHO cells; mTurquoise donor, EYFP acceptor; FRET efficiency per membrane pixel; with IGF1.
The target in assay [2] is IGF1R ECD-TM-fp (human). The experiment in a line: FRET or BRET; quantitative imaging FRET (QI-FRET) in plasma-membrane vesicles derived from transfected CHO cells; intrinsic FRET corrected for proximity FRET and donor-to-acceptor ratio; with IGF1. In general terms: In BRET a luciferase serves as donor, and the signal depends on an acceptor being close.
The target of assay [3] is IGF1R TM-fp (human). Nature of the assay: FRET or BRET; spectrally resolved two-photon FRET on living, serum-starved CHO cells; mTurquoise donor, EYFP acceptor; FRET efficiency per membrane pixel; without IGF1.
The target of assay [4] is IGF1R ECD-TM-fp H905C (human). The experiment in a line: FRET or BRET; quantitative imaging FRET (QI-FRET) in plasma-membrane vesicles derived from transiently co-transfected CHO cells; EYFP donor, mCherry acceptor; confocal microscopy at room temperature; intrinsic FRET corrected for proximity FRET and donor-to-acceptor ratio; without IGF1.
Assay [5] deals with IGF1R ECDΔL1-TM-fp (human). The description is as above.
Assay [6] has as its target IGF1R TM-icd H905C (human). Nature of the assay: cross-linking; disulfide bond between introduced cysteines; HEK293 cells incubated with or without IGF1, lysed in RIPA buffer with 10 mM iodoacetamide; non-reducing against reducing SDS-PAGE, anti-IGF1Rβ Western blot. On the technique in general: Immunoblotting shows a protein as a band on a membrane.
The target in assay [7] is IGF1R ECD-TM-fp (human).

What is called stoichiometry N is the number of molecules, sites or subunits per partner or assembly.

Values joined by “and” are separate entries in the source; they are usually repeats but may differ in a detail not shown here. Identical values can stand only once.

Sequence of IGF1R ECD-TM-fp (P08069 741-935): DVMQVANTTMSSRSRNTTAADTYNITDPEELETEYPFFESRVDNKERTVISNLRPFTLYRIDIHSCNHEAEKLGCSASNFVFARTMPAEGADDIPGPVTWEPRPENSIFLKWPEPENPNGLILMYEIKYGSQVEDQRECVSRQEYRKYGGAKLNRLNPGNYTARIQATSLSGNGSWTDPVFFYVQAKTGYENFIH
Sequence of IGF1 (P05019 49-118): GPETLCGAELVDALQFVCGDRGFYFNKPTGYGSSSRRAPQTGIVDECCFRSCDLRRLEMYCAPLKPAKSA

Consider IGF1R ECD-TM-fp (domain or fragment), for which the FRET efficiency per membrane pixel (peak of a normal distribution) in assay [1] was determined as 0.34. Also, in assay [2], the intrinsic FRET efficiency (y intercept of a horizontal line) was determined as 0.34.
Regarding IGF1R TM-fp (domain or fragment), the FRET efficiency per membrane pixel (peak of a two state distribution) in assay [3] is 0.37 and 0.33.
Take “IGF1R ECD-TM-fp H905C (domain or fragment)”: in assay [4], the intrinsic FRET efficiency (y intercept of a horizontal line) is 0.38.
Take IGF1R ECDΔL1-TM-fp (domain or fragment): the intrinsic FRET efficiency (y intercept of a horizontal line) in assay [5] came to 0.36.
For IGF1R TM-icd H905C (domain or fragment), the stoichiometry N in assay [6] came to 2.
In assay [7], “IGF1 (from UniProt P05019 49-118) (ligand)” displayed an FRET efficiency between co-transfected donor- and acceptor-tagged IGF1R ECD-TM-fp in membranes of live CHO cells, with against without ligand of 2 fold.
